Here are results for two molecules from article PMC3997432, “A Truncated Form of Rod Photoreceptor PDE6 β-Subunit Causes Autosomal Dominant Congenital Stationary Night Blindness by Interfering with the Inhibitory Activity of the γ-Subunit” (PLoS ONE, 2014).

No end group written: not given here. *: point of attachment. BC = 3-(bromoacetyl)-7-diethyl-aminocoumarin, CCN(CC)c1ccc2cc(C(=O)C*)c(=O)oc2c1

In experiment [1] the target is trypsin-activated bovine PDE6 (tPDE6), PDE6αβ catalytic subunits lacking the inhibitory Pγ subunits (bovine) (UniProt P11541).
Experiment [2] deals with T1, PDE6β1-313 (PDE6-specific N-terminal portion of the human rod cGMP phosphodiesterase type 6 β-subunit … (human, UniProt P35913-1 1-313)).
T1 construct: rod cGMP phosphodiesterase type 6 β-subunit (PDE6β), human, residues 1-313; contains the GAFa domain and a portion of the GAFb domain; amplified from a human retinal cDNA library; Cloned into pET15b with NdeI/BamHI; no removal of the tag is described; also called His6-tagged PDE6β1-313; truncated PDE6β
Put plainly: other fluorescence titration; CysBC-Pγ24-45 (50 nM) in 1 ml of 100 mM PBS buffer (pH 7.5), increasing concentrations of PDE6β1-313 added; excitation 445 nm, emission 490 nm; fit to a hyperbola. As to conditions: both partners purified.

Sequence of trypsin-activated bovine PDE6 (tPDE6), PDE6αβ catalytic subunits lacking the inhibitory Pγ subunits (bovine) (P11541 whole entry, chain 1 of 2): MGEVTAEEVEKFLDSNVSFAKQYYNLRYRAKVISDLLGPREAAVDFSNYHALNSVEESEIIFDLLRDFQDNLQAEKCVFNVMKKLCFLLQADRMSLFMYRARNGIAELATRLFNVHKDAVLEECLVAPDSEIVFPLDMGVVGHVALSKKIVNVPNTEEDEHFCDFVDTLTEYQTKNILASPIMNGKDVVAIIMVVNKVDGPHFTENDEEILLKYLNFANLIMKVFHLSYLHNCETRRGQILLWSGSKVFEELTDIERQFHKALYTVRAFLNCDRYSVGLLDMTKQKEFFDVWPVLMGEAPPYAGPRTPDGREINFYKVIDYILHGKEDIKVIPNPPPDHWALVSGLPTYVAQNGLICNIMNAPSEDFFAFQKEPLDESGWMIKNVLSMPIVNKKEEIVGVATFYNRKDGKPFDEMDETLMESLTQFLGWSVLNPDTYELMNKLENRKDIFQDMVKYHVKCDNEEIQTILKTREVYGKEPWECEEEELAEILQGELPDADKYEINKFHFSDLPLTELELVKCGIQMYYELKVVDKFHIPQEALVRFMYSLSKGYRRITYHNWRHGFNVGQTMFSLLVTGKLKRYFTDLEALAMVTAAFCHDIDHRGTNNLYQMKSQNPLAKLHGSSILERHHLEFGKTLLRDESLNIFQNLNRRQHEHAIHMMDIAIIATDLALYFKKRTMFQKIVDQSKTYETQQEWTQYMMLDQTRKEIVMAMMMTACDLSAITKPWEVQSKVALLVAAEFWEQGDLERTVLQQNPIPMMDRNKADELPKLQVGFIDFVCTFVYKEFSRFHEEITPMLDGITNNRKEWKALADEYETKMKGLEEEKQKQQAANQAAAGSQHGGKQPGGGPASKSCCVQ
Sequence of trypsin-activated bovine PDE6 (tPDE6), PDE6αβ catalytic subunits lacking the inhibitory Pγ subunits (bovine) (P23439 whole entry, chain 2 of 2, further chain): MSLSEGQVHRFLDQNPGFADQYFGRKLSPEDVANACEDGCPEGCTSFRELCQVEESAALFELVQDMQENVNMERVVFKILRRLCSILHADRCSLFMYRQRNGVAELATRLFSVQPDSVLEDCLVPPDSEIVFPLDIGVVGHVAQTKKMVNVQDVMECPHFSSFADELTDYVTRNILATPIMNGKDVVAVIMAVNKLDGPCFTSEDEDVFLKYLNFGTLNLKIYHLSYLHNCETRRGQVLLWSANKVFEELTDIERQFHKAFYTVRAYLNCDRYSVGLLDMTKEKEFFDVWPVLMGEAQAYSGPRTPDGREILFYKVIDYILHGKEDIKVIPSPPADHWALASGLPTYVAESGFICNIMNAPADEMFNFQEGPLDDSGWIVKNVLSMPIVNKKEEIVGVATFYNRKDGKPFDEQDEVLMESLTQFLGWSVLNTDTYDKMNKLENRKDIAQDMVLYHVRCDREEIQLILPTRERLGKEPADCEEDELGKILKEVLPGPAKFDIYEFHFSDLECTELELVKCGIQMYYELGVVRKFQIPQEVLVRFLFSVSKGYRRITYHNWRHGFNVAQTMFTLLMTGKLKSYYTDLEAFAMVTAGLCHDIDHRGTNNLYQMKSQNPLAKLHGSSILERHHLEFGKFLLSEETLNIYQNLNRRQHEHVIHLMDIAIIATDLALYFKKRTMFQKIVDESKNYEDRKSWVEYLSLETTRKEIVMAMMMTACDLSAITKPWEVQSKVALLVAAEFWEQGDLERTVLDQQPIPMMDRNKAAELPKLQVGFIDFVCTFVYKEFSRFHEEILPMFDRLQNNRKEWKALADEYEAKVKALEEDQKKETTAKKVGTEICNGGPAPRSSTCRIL
T1 sequence (P35913 1-313, stated change not applied): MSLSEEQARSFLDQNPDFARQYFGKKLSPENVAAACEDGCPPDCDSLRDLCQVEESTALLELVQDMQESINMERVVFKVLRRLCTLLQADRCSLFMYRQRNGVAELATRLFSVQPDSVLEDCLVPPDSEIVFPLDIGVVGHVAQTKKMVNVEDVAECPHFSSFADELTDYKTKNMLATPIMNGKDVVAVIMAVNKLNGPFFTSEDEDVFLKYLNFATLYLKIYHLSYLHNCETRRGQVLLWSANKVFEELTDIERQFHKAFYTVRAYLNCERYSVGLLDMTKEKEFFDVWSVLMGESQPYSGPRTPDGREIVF

B1: Recombinant bovine rod Pγ-subunit (PDE6 inhibitory γ-subunit) (natural protein)
chain: MNLEPPKAEIRSATRVMGGPVTPRKGPPKFKQRQTRQFKSKPPKKGVQGFGDDIPGMEGLGTDITVICPWEAFNHLELHELAQYGII
With B1, in experiment [1], the IC50 of the inhibition of tPDE6 (50 pM) activity ([3H]cGMP hydrolysis) by increasing concentrations of Pγ, in the absence of PDE6β1-313 was determined as 0.53 nM and the IC50 of the inhibition of tPDE6 (50 pM) activity ([3H]cGMP hydrolysis) by increasing concentrations of Pγ, in the presence of 2 µM PDE6β1-313 came to 1.6 nM.

B2: CysBC-Pγ24-45 (Cys-Pγ24-45 peptide labeled at the N-terminal Cys with 3-(bromoacetyl)-7-diethyl-aminocoumarin) (peptide)
peptide: C(BC)RKGPPKFKQRQTRQFKSKPPKK
notes: Cys added at the N-terminus of the peptide to carry the probe (Cys-Pγ24-45); also called fluorescently labeled Pγ24-45; polycationic region of Pγ; source: synthetic peptide
For B2, the dissociation constant (Kd) – broadly, the constant that tells how readily two partners part at equilibrium – in experiment [2] was 320 nM.
